The record followed here is US20250027068.

B1: PRT-541 (protein)
chain: MANQEIRYSKNENPNVTIKWVHGIGEPTQAEKEKIEFWWYETTTTKFFNNRKVDHLGDGNQCWAKTDSNMLHWWFVQNEENINQYIAKKNITGKINFNGEQMFDVKEGIDDNQEKEKSYIANTFRTKKAHNLSTKHKGDYIINGLSWYLYGLNNFKIAHGPTPVKKKPKFYGPALFKDVFSRGDGNTPIIVETDFKEYTKKEFEDTLSAALDSKKAIGINIYGSNVDYQHAITLWGAAFDEEENIIAIYVVDNNFKFENRIFPYGIWYQKEGRPYLFNYEINSFVKNRYVGEVTTLDKGEAQWQETNLEHHHHHH
B2: PRT-554 (protein)
chain: MANQEIRYSEETPKTITSVWTKGVTPPTDFIKNEDVFHAPYVANQGWYDITKTFNGKDDLLCGAATAGNMLHWWFDQNKEEIENYLKKHPEKQKINFNGEQMFDVKEAIDTKDSQTDSALFNYFKDKAFPYLSTKHLGVFPDHVIDMFINGYRLSLTNHGPTPVKDGTKDPRGGIFDAVFTRGDQTKLLTARHDFKEKTLNEISDLIKQELTEGKALGLSHTYANVRINHVINLWGADFDSEGNLEAIYVTDSDSNASIGMKKYYVGVNAAGKVAISAKEIEDDNIGAQVLGLFTLSTGQDIWEQTNLEHHHHHH
B3: PRT-555 (protein)
chain: MANQEIRYSEETPKTITSVWTKGVTPPTDFIKNEDVLHAPYVANQGWYDITKTFNGKDDLLCGAATAGNMLHWWFDQNKEEIERYLKKHPEKQKINFNGEQMFDVKEAIDTKDSQTDSKLFEYFKDKAFPYLSTKHLGVFPDHVIDMFINGYRLSLTNHGPTPVKRGTKDPRGGIFDAVFTRGDQSKLLTSRHDFKEKTLNEISDLIKQELQEGKALGLSHTYANVRINHVINLWGADFDSEGNLEAIYVTDSDSNASIGMKKYYVGVNSAGKVAISAKEIEDDNIGAQVLGLFTLSTGKDIWEQTNLEHHHHHH
B4: PRT-247 (protein)
chain: MVTSVWTKGVTPPANFTQGEDVFHAPYVANQGWYDITKLFNGKDDLLCGAATAGNMLHWWFDQNKDQIKRYLEEHPEKQKINFNGEQMFDVKEAIDTKNHQLDSKLFEYFLEKAFPYLSTKHLGVFPDHVIDMFINGYRLSLTNHGPTPVKEGSKDPRGGIFDAVFTRGDQSKLLTSRHDFKEKNLKEISDLIKKELTEGKALGLSHTYANVRINHVINLWGADFDSNGNLKAIAVTDSDSNASIGMKKYFVGVNSSGKVAISAKEIKEDNIGAQVLGLFTLSTGQDSWNQTN
B5: PRT-271 (protein)
chain: MVTSVWTKGVTPPTDFIYGEDVLHAPYKAGQGWYDITKLFNGKDDLLCGAATAGNMLHWWFDQNKEQIENYLKKHPEKQKINFNGEQMFDVKEAIDTKDSQLDSKLFDYFKEKAFPYLSTKHLGVFPDHVIDMFINGYRLSLTNHGPTPVKRGSKDPRGGIFDAVFTRGDQSKLLTNRHDLKNKTLKEISDLIKQELTEGKALGISHTYANVRINHVINLWGADFDAEGNLEAIYVTDSDSNPSIGMKKYFVGVNSSGKVAISAKEIEEDNIGAQVLGLFTLSTGQDIWNQTN
B6: PRT-567 (protein)
chain: MANQEIRYSEETPSTITSVWTKGVTPPTDFIQNEDVLHAPYIANQGWYDITKTFNGKDDLLCGAATAGNMLHWWFDQNKEQIENYLKKHPEKQKINFNGEQMFDVKEAIDTKDSQTDSALFEYFKDKAFPYLSTKHLGVFPDHVIDMFINGYRLSLTNHGPTPVKRGTKDPRGGIFDAVFTRGDQSKLLTSRHDFKEKTLNEISDLIKQELTEGKALGLSHTYANVRINHVINLWGADFNAEGNLEAIYVTDSDSNASIGMKKYYVGVNSAGKVAISAKEIEGDNIGAQVLGLFTLSTGQDIWNQTNLEHHHHHH
B7: PRT-573 (protein)
chain: MANQEIRYSEETPSTITSVWTKGVTPPTQFIQNEDVLHAPYIANQGWYDITKTFNGKDDLLCGAATAGNMLHWWFDQNKEQIENYLKKHPEKQKINFNGEQMFDVKEAIDTKDSQTDSALFSYFKDKAFPYLSTKHLGVFPDHVIDMFINGYRLSLTNHGPTPVKRQTKDPRGGIFDAVFTRGDQSKLLTSRHDFKEKTLNEISQLIKQELTEGKALGLSHTYANVRINHVINLWGADFNAEGNLEAIYVTDSDSNASIGMKKYYVGVNSAGKVAISAKEIEGDNIGAQVLGLFTLSTGQDIWQQTNLEHHHHHH
B8: PRT-575 (protein)
chain: MANQEIRYSEETPKTITSVWTKGVTPPTDFIYNEDVLHAPYIANQGWYDITKTFNGKDDLLCGAATAGNMLHWWFDQNKEQIERYLKKHPEKQKINFNGEQMFDVKEAIDTKDSQTNSKLFEYFKDKAFPYLSTKHLGVFPDHVIDMFINGYRLSLTNHGPTPVKEQTKDPRGGIFDAVFTRGDQSKLLTSRHDFKEKTLKEISDLIKQELTEGKALGLSHTYANVRINHVINLWGADFDAEGNLEAIYVTDSDSNASIGMKKYYVGVNSAGKVAISAKEIEGDNIGAQVLGLFTLSTGKDIWEQTNLEHHHHHH
B9: PRT-580 (protein)
chain: MANQEIRYSEETPKTITSVWTKGVTPPTDFIKNEDVFHAPYVANQGWYDITKTFNGKDDLLCGAATAGNMLHWWFDQNKEEIERYLKKHPEKQKINFNGEQMFDVKEAIDTKDSQTNSKLFEYFKDKAFPYLSTKHLGVFPDHVIDMFINGYRLSLTNHGPTPVKRGTKDPRGGIFDAVFTRGDQSKLLTSRHDFKEKTLKEISDLIKQELQEGKALGLSHTYANVRINHVINLWGADFDSEGNLEAIYVTDSDSNASIGMKKYYVGVNSAGKVAISAKEIEDDNIGAQVLGLFTLSTGKDIWEQTNLEHHHHHH
B10: PRT-556 (protein)
chain: MANQEIRYSKAKPKVITSVWTKGVTPPTQFTYNEDVFHAPYLPNQGWYDITKTFNGKDDLLCGAATAGNMLHWWFDQNKEQIERYLKEHPEKQKINFNGEQMFDVKEAIDTKDSQTNSKLFNYFKDKAFPYLSTKHLGVFPDHVIDMFINGYRLSLTNHGPTPVKEQNKDPRGGIFDDVFTRGDQSKLLTSRHDFKEKTLKEISDLIKQELKEGKALGLSHTYANVRINHVINLWGADFDAEGNLVAIYVTDSDSNASIGMKKYYVGVNSAGKVAISAKEIEDDNIGAQVLGLFTLSTGKDIWEKTNLEHHHHHH
B11: PRT-538 (protein)
chain: MANQEIRYSSDSEWANKKVWVYGITPPEEGAWKYSTYYLPWKKEYGWYDCNKRNPTADGMMCWAATASNLLHWWIAQNKEYIDLYGDKYKGPDKINFNGEQMFDVKEYIDPLDKPQESDIFQCFIDKSFADLSTKHEAGYGDEGINWFIHGIIPSSPAHGPTPVKLRKPYNPAGYFKDVFPRGDGVKLLSNNGDFKELGKERFNETIKDALKNKKGIGLSIGPVNVRSGHVVTMWGAEFDENGDVSYIYIADNNDRWGVGCIRYQIVYEEGGTYTCYKTEIINEDRPIPINRLVTLELGEEYWKQTNLEHHHHHH
B12: PRT-255 (protein)
chain: MVTSVWTKGVTPPTNFTYGEDVLHAPYVANQGWYDITKTFNGKDDLLCGAATAGNMLHWWFDQNKEQIENYLKKHPEKQKINFNGEQMFDVKEAIDTKDSQLDSKLFEYFLEKAFPNLSTKHLGVFPDHVIDMFINGYRLSLLNHGPTPVKRGSKDPRGGIFDAVFTRGDQSKLLTNRHDFKEKTLKEISDLIKQELTEGKALGISHTYANVGINHVINLWGADFDAEGNLEAIAVTDSDSNASIGMKKYFVGVNSSGKVAISAKEIEEDNIGAQVLGLFTLSTGQDIWNQTN
B13: PRT-263 (protein)
chain: MVTSVWTKGVTPPTNFTYGEDVLHAPYVANQGWYDITKLFNGKDNLLCGAATAGNMLHWWFDQNKEQIENYLKKHPEKQKINFNGEQLFDVKEAIDTKDSQLDSKLFEYFLEKAFPNLSTKHLGVFPDHVIDMFINGYRLSLLNHGPTPVKRGSKDKRGGIFDAVFTRGVQSKLLTNRHDFKEKTLKEISDLIKQELTEGKALGISHTYANGRINHVINLWGADFDAEGNLEAIAVTDSDTNASIGMKKYFVGVNSSGKVAISAKEIEEDNIGAQVLGLFTLSTGQDIWNQTN

This data set has as its target pooled human IgG (human IgG1, 2, 3 and 4).
In the case of B1, the Enzyme Activity Endpoint Assay: Fab′2 was 0 ng/µL, the Enzyme Activity Endpoint Assay: Fc amounted to 0 ng/µL, the Enzyme Activity Endpoint Assay: IgG came to 854 ng/µL and the Enzyme Activity Endpoint Assay: scIgG was determined as 3 ng/µL.

Protein B2 registered an Enzyme Activity Endpoint Assay: Fab′2 of 580 ng/µL, an Enzyme Activity Endpoint Assay: Fc of 350 ng/µL, an Enzyme Activity Endpoint Assay: IgG of 36 ng/µL and an Enzyme Activity Endpoint Assay: scIgG of 0 ng/µL.

Consider B3, for which the Enzyme Activity Endpoint Assay: Fab′2 came out at 670 ng/µL, the Enzyme Activity Endpoint Assay: Fc came out at 475 ng/µL, the Enzyme Activity Endpoint Assay: IgG is 0 ng/µL and the Enzyme Activity Endpoint Assay: scIgG worked out at 0 ng/µL.

As to B4, the Enzyme Activity Endpoint Assay: Fab′2 came out at 0 ng/µL, the Enzyme Activity Endpoint Assay: Fc was 81 ng/µL, the Enzyme Activity Endpoint Assay: IgG was 308 ng/µL and the Enzyme Activity Endpoint Assay: scIgG was determined as 279 ng/µL.

B5: the Enzyme Activity Endpoint Assay: Fab′2 stood at 563 ng/µL, the Enzyme Activity Endpoint Assay: Fc stood at 322 ng/µL, the Enzyme Activity Endpoint Assay: IgG is 0 ng/µL and the Enzyme Activity Endpoint Assay: scIgG came to 0 ng/µL.

For B6, the Enzyme Activity Endpoint Assay: Fab′2 came out at 385 ng/µL, the Enzyme Activity Endpoint Assay: Fc amounted to 297 ng/µL, the Enzyme Activity Endpoint Assay: IgG is 65 ng/µL and the Enzyme Activity Endpoint Assay: scIgG came to 372 ng/µL.

B7 displayed an Enzyme Activity Endpoint Assay: Fab′2 of 759 ng/µL, an Enzyme Activity Endpoint Assay: Fc of 409 ng/µL, an Enzyme Activity Endpoint Assay: IgG of 0 ng/µL and an Enzyme Activity Endpoint Assay: scIgG of 0 ng/µL.

The protein B8 gave an Enzyme Activity Endpoint Assay: Fab′2 of 254 ng/µL, an Enzyme Activity Endpoint Assay: Fc of 309 ng/µL, an Enzyme Activity Endpoint Assay: IgG of 94 ng/µL and an Enzyme Activity Endpoint Assay: scIgG of 607 ng/µL.

Regarding B9, the Enzyme Activity Endpoint Assay: Fab′2 is 566 ng/µL, the Enzyme Activity Endpoint Assay: Fc is 282 ng/µL, the Enzyme Activity Endpoint Assay: IgG stood at 0 ng/µL and the Enzyme Activity Endpoint Assay: scIgG came out at 0 ng/µL.

Consider B10, for which the Enzyme Activity Endpoint Assay: Fab′2 was found to be 570 ng/µL, the Enzyme Activity Endpoint Assay: Fc stood at 351 ng/µL, the Enzyme Activity Endpoint Assay: IgG amounted to 16 ng/µL and the Enzyme Activity Endpoint Assay: scIgG was 200 ng/µL.

For the protein B11, the Enzyme Activity Endpoint Assay: Fab′2 was 5 ng/µL, the Enzyme Activity Endpoint Assay: Fc turned out to be 0 ng/µL, the Enzyme Activity Endpoint Assay: IgG was 1160 ng/µL and the Enzyme Activity Endpoint Assay: scIgG stood at 0 ng/µL.

Take B12: the Enzyme Activity Endpoint Assay: Fab′2 was 58 ng/µL, the Enzyme Activity Endpoint Assay: Fc stood at 178 ng/µL, the Enzyme Activity Endpoint Assay: IgG was determined as 75 ng/µL and the Enzyme Activity Endpoint Assay: scIgG turned out to be 525 ng/µL.

B13 gave an Enzyme Activity Endpoint Assay: Fab′2 of 0 ng/µL, an Enzyme Activity Endpoint Assay: Fc of 27 ng/µL, an Enzyme Activity Endpoint Assay: IgG of 986 ng/µL and an Enzyme Activity Endpoint Assay: scIgG of 0 ng/µL.
